This experiment concerns the target T1, Bd0109 (Bdellovibrio bacteriovorus HD100, UniProt Q6MRH5 1-550).
T1 sequence (looked up): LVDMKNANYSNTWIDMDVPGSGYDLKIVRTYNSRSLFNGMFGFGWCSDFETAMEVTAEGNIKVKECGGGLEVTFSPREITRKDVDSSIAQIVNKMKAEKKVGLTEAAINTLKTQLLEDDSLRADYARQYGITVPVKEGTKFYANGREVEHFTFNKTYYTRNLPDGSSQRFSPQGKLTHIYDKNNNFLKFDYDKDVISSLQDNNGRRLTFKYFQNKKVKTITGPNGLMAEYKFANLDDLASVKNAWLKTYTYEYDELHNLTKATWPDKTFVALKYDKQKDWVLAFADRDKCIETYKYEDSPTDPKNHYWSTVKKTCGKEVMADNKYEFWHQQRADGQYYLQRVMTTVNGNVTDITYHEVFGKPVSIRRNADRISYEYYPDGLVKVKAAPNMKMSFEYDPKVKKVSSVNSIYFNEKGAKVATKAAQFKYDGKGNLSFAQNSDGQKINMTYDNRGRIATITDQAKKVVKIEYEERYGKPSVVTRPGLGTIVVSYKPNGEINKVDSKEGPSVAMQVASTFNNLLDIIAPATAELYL
As to the kind of experiment: ITC; 1.2 mM Bd0108 titrated into 0.02 mM Bd0109; VP-ITC, 25°C; 20 mM Tris pH 7.0 100 mM NaCl 1 mM β-ME; one-site model. The following applies: both partners purified. (In ITC the heat of successive injections is recorded.)

B1: Bd0108 (natural protein, Bdellovibrio bacteriovorus HD100)
chain: SHMADENANRPVNPGEDPNEAFRSTPFEATTSALGDCRECIAYRTGATTGKGSRRHDDTVSREIKGSSATPGGSEKAGTGRQ
modifications: disulfide between C56 and C59; 15N-labelled in the NMR titration
notes: tripeptide left on the mature N-terminus after thrombin cleavage of the His tag (cloning artefact); Bd0108 of Bdellovibrio bacteriovorus HD100, a 101 amino acid protein with an N-terminal Sec signal peptide; amino acids 23-101 cloned into pET28b; The assigned cloning artefacts (residues 21 and 22) in the titration point to this cytoplasmic construct and not to the PelB construct; also called …
For the molecule B1, the affinity, expressed as Kd, was 45 µM; the dH is -2.08 kcal/mol; the “stoichiometry N” value was 3.1.

The term Kd denotes a measure of binding affinity in units of concentration. Usually stoichiometry N stands for a count of units in the complex or per binding partner.

Source of the values: paper PMC4267844, “The Lifestyle Switch Protein Bd0108 of Bdellovibrio bacteriovorus Is an Intrinsically Disordered Protein” (PLoS ONE, 2014).
